In PMC12808100, “The non-catalytic DNA polymerase ε subunit is an NPF motif recognition protein” (Nature Communications, 2025):

Target: His6-avi-MBP-tagged POLE2
Assay: Single-point nHU-MS with recombinant His6-avi-MBP-POLE2 bait, Jurkat extract
Type: binding, human
Details: for pKapp_sign: significant apparent affinity of endogenous prey protein for POLE2 bait, single-point nHU-MS, Figure S11
Text: So far, our study only focused on a few hand-picked NPF motifs and studied them as short synthetic peptides. However, many other proteins may be present in the proteome that could bind to POLE2 and their putative NPF motifs are embedded in their natural structures that can greatly affect their binding properties. To investigate interactions between POLE2 and intact, full length proteins proteome-wide, we used nHU-MS experiments with recombinant His6-avi-MBP-tagged POLE2 as bait and purified His6-avi-MBP as a control. Even though we are aware that this recombinant POLE2 may bind to NPF motifs with a somewhat altered affinity, we assumed that this would affect all NPF motif-mediated interactions equally, allowing an unbiased affinity ranking of all identified partners. Single point nHU measurements were performed at 26 μM POLE2 concentration and the recovered supernatant was measured by label free proteomic MS measurements (Fig. 3A, Supplementary Figs. 8A, 9, Supplementary Data 1).
Single-point nHU experiments with protein baits were carried out nearly identically with two key modifications. First, the resin saturation step was carried out by mixing 50 μl streptavidin resin with 0.5−1 ml 50 μM biotinylated protein solution and the mixture was incubated for 1.5 h at 4 °C with constant agitation. Second, instead of using estimated bait concentrations, we measured it experimentally. An extra aliquot of resin stock was prepared alongside the nHU samples that were identically processed that were used to eluate the immobilized proteins under harsh conditions, in order to experimentally quantify the Cbait by using densitometry of Coomassie stained SDS-PAGE that included a protein calibration series. For this, 50 μl bait-saturated resin aliquots were mixed with 200 μl 4x Laemmli Sample Buffer (120 mM Tris-HCl pH 7, 8% SDS, 100 mM DTT, 32% glycerol, 0.004% bromphenol blue, 1% β-mercaptoethanol), instead of cell extract. After 15 min incubation at 95 °C, these samples were analyzed by SDS-PAGE using protein calibration standard, made from recombinant MBP. Densitometry was carried out after Coomassie staining on raw Tif images by using Fiji ImageJ 1.53c and experimental bait concentration were determined by adjusting for molecular weight differences between MBP and MBP-POLE2 constructs.
Samples were digested overnight at 37 °C.

| Molecule | Kd (from the depletion of one peptide, single quantification, read-out: dissociation constant) [µM] | depletion (one DONSON peptide, single quantification) | pKapp_sign |
| --- | --- | --- | --- |
| endogenous DONSON: endogenous DONSON protein in Jurkat extract (protein) MALSVPGYSPGFRKPPEVVRLRRKRARSRGAAASPPRELTEPAARRAALVAGLPLRPFPAAGGRGGGSGGGPAAARRNPFARLDNRPRVAAEPPDGPAREQPEAPVPFLDSNQENDLLWEEKFPERTTVTELPQTSHVSFSEPDIPSSKSTELPVDWSIKTRLLFTSSQPFTWADHLKAQEEAQGLVQHCRATEVTLPKSIQDPKLSSELRCTFQQSLIYWLHPALSWLPLFPRIGADRKMAGKTSPWSNDATLQHVLMSDWSVSFTSLYNLLKTKLCPYFYVCTYQFTVLFRAAGLAGSDLITALISPTTRGLREAMRNEGIEFSLPLIKESGHKKETASGTSLGYGEEQAISDEDEEESFSWLEEMGVQDKIKKPDILSIKLRKEKHEVQMDHRPESVVLVKGINTFTLLNFLINSKSLVATSGPQAGLPPTLLSPVAFRGATMQMLKARSVNVKTQALSGYRDQFSLEITGPIMPHSLHSLTMLLKSSQSGSFSAVLYPHEPTAVFNICLQMDKVLDMEVVHKELTNCGLHPNTLEQLSQIPLLGKSSLRNVVLRDYIYNWRS | 92 | approximately 22% |  |
| FBXO3 (protein, UniProt Q9UK99 1-471, looked up) F-box only protein 3: MAAMETETAPLTLESLPTDPLLLILSFLDYRDLINCCYVSRRLSQLSSHDPLWRRHCKKYWLISEEEKTQKNQCWKSLFIDTYSDVGRYIDHYAAIKKAWDDLKKYLEPRCPRMVLSLKEGAREEDLDAVEAQIGCKLPDDYRCSYRIHNGQKLVVPGLLGSMALSNHYRSEDLLDVDTAAGGFQQRQGLKYCLPLTFCIHTGLSQYIAVEAAEGRNKNEVFYQCPDQMARNPAAIDMFIIGATFTDWFTSYVKNVVSGGFPIIRDQIFRYVHDPECVATTGDITVSVSTSFLPELSSVHPPHYFFTYRIRIEMSKDALPEKACQLDSRYWRITNAKGDVEEVQGPGVVGEFPIISPGRVYEYTSCTTFSTTSGYMEGYYTFHFLYFKDKIFNVAIPRFHMACPTFRVSIARLEMGPDEYEEMEEEEEEEEEEDEDDDSADMDESDEDDEEERRRRVFDVPIRRRRCSRLF |  |  | 4.421 |
| GLB1 (protein, UniProt P16278 29-677, looked up) Beta-galactosidase: QRMFEIDYSRDSFLKDGQPFRYISGSIHYSRVPRFYWKDRLLKMKMAGLNAIQTYVPWNFHEPWPGQYQFSEDHDVEYFLRLAHELGLLVILRPGPYICAEWEMGGLPAWLLEKESILLRSSDPDYLAAVDKWLGVLLPKMKPLLYQNGGPVITVQVENEYGSYFACDFDYLRFLQKRFRHHLGDDVVLFTTDGAHKTFLKCGALQGLYTTVDFGTGSNITDAFLSQRKCEPKGPLINSEFYTGWLDHWGQPHSTIKTEAVASSLYDILARGASVNLYMFIGGTNFAYWNGANSPYAAQPTSYDYDAPLSEAGDLTEKYFALRNIIQKFEKVPEGPIPPSTPKFAYGKVTLEKLKTVGAALDILCPSGPIKSLYPLTFIQVKQHYGFVLYRTTLPQDCSNPAPLSSPLNGVHDRAYVAVDGIPQGVLERNNVITLNITGKAGATLDLLVENMGRVNYGAYINDFKGLVSNLTLSSNILTDWTIFPLDTEDAVRSHLGGWGHRDSGHHDEAWAHNSSNYTLPAFYMGNFSIPSGIPDLPQDTFIQFPGWTKGQVWINGFNLGRYWPARGPQLTLFVPQHILMTSAPNTITVLELEWAPCSSDDPELCAVTFVDRPVIGSSVTYDHPSKPVEKRLMPPPPQKNKDSWLDHV |  |  | 4.2 |
| LMO4 (protein, UniProt P61968 1-165, looked up) LIM domain transcription …: MVNPGSSSQPPPVTAGSLSWKRCAGCGGKIADRFLLYAMDSYWHSRCLKCSCCQAQLGDIGTSCYTKSGMILCRNDYIRLFGNSGACSACGQSIPASELVMRAQGNVYHLKCFTCSTCRNRLVPGDRFHYINGSLFCEHDRPTALINGHLNSLQSNPLLPDQKVC |  |  | 4.815 |
| PNMA2 (protein, UniProt Q9UL42 2-364, looked up) Paraneoplastic antigen Ma2: ALALLEDWCRIMSVDEQKSLMVTGIPADFEEAEIQEVLQETLKSLGRYRLLGKIFRKQENANAVLLELLEDTDVSAIPSEVQGKGGVWKVIFKTPNQDTEFLERLNLFLEKEGQTVSGMFRALGQEGVSPATVPCISPELLAHLLGQAMAHAPQPLLPMRYRKLRVFSGSAVPAPEEESFEVWLEQATEIVKEWPVTEAEKKRWLAESLRGPALDLMHIVQADNPSISVEECLEAFKQVFGSLESRRTAQVRYLKTYQEEGEKVSAYVLRLETLLRRAVEKRAIPRRIADQVRLEQVMAGATLNQMLWCRLRELKDQGPPPSFLELMKVIREEEEEEASFENESIEEPEERDGYGRWNHEGDD |  |  | 5.251 |
